Experimental data reported in US20230416365A1 (Hoffmann-La Roche, published 2023).

Experiments:
[1] = target: T1, human FAP on 3T3-huFAP cells (clone 19) (human, UniProt Q12884 1-760); experiment: flow cytometry on 3T3-huFAP cells, median fluorescence intensity (axis MFI APC)
Method: (§1) Binding was assessed by flow cytometry with a FACS Fortessa (BD, Software FACS Diva). Binding curves were obtained using GraphPadPrism6.

[2] = target: T1, human FAP on 3T3-huFAP cells (clone 19); experiment: flow cytometry on 3T3-huFAP cells, PE anti-human secondary antibody, median fluorescence intensity
Method: as §1

Row | Binder | EC50 (read off the curve) [1] | also measured
1 | FAP(4B9)-CD28(SA) 1+1 format (Molecule C) (bispecific antibody, human IgG1, kappa, L234A L235A, huIgG1 PG-LALA CrossFab, knob-into-hole; also called P1AD4492; parental) heavy 1: not shown light 1: not shown heavy 2: EIVLTQSPGTLSLSPGERATLSCRASQSVTSSYLAWYQQKPGQAPRLLINVGSRRATGIPDRFSGSGSGTDFTLTISRLEPEDFAVYYCQQGIMLPPTFGQGTKVEIKSSASTKGPSVFPLAPSSKSTSGGTAALGCLVKDYFPEPVTVSWNSGALTSGVHTFPAVLQSSGLYSLSSVVTVPSSSLGTQTYICNVNHKPSNTKVDKKVEPKSCDKTHTCPPCPAPEAAGGPSVFLFPPKPKDTLMISRTPEVTCVVVDVSHEDPEVKFNWYVDGVEVHNAKTKPREEQYNSTYRVVSVLTVLHQDWLNGKEYKCKVSNKALGAPIEKTISKAKGQPREPQVCTLPPSRDELTKNQVSLSCAVKGFYPSDIAVEWESNGQPENNYKTTPPVLDSDGSFFLVSKLTVDKSRWQQGNVFSCSVMHEALHNHYTQKSLSLSP light 2: EVQLLESGGGLVQPGGSLRLSCAASGFTFSSYAMSWVRQAPGKGLEWVSAIIGSGASTYYADSVKGRFTISRDNSKNTLYLQMNSLRAEDTAVYYCAKGWFGGFNYWGQGTLVTVSSASVAAPSVFIFPPSDEQLKSGTASVVCLLNNFYPREAKVQWKVDNALQSGNSQESVTEQDSKDSTYSLSSTLTLSKADYEKHKVYACEVTHQGLSSPVTKSFNRGEC | ~1 nM | 
2 | FAP(4B9)-CD28(SA) 1+2 format (Molecule E) (bispecific antibody, human IgG1, kappa, L234A L235A, bivalent anti-CD28, monovalent anti-FAP (VH and VL fused to the C-termini of the Fc chains); also called P1AD9011; FAP-CD28 1+2 SA) heavy 1: not shown heavy 2: QVQLVQSGAEVKKPGASVKVSCKASGYTFTSYYIHWVRQAPGQGLEWIGCIYPGNVNTNYNEKFKDRATLTVDTSISTAYMELSRLRSDDTAVYFCTRSHYGLDWNFDVWGQGTTVTVSSASTKGPSVFPLAPSSKSTSGGTAALGCLVKDYFPEPVTVSWNSGALTSGVHTFPAVLQSSGLYSLSSVVTVPSSSLGTQTYICNVNHKPSNTKVDKKVEPKSCDKTHTCPPCPAPEAAGGPSVFLFPPKPKDTLMISRTPEVTCVVVDVSHEDPEVKFNWYVDGVEVHNAKTKPREEQYNSTYRVVSVLTVLHQDWLNGKEYKCKVSNKALGAPIEKTISKAKGQPREPQVCTLPPSRDELTKNQVSLSCAVKGFYPSDIAVEWESNGQPENNYKTTPPVLDSDGSFFLVSKLTVDKSRWQQGNVFSCSVMHEALHNHYTQKSLSLSPGGGGGSGGGGSGGGGSGGGGSEIVLTQSPGTLSLSPGERATLSCRASQSVTSSYLAWYQQKPGQAPRLLINVGSRRATGIPDRFSGSGSGTDFTLTISRLEPEDFAVYYCQQGIMLPPTFGQGTKVEIK light: not shown | ~4 nM | 
3 | FAP-CD28 CTF (P1AE2236) (bispecific antibody, human IgG1, kappa, L234A L235A, also called Molecule I; FAP(4B9)-CD28(SA) C-04) CD28(SA) light chain: not shown heavy chain CD28(SA) VHCH - Fc hole - FAP(4B9) VL: QVQLVQSGAEVKKPGASVKVSCKASGYTFTSYYIHWVRQAPGQGLEWIGCIYPGNVNTNYNEKFKDRATLTVDTSISTAYMELSRLRSDDTAVYFCTRSHYGLDWNFDVWGQGTTVTVSSASTKGPSVFPLAPSSKSTSGGTAALGCLVKDYFPEPVTVSWNSGALTSGVHTFPAVLQSSGLYSLSSVVTVPSSSLGTQTYICNVNHKPSNTKVDKKVEPKSCDKTHTCPPCPAPEAAGGPSVFLFPPKPKDTLMISRTPEVTCVVVDVSHEDPEVKFNWYVDGVEVHNAKTKPREEQYNSTYRVVSVLTVLHQDWLNGKEYKCKVSNKALGAPIEKTISKAKGQPREPQVCTLPPSRDELTKNQVSLSCAVKGFYPSDIAVEWESNGQPENNYKTTPPVLDSDGSFFLVSKLTVDKSRWQQGNVFSCSVMHEALHNHYTQKSLSLSPGGGGGSGGGGSGGGGSGGGGSEIVLTQSPGTLSLSPGERATLSCRASQSVTSSYLAWYQQKPGQAPRLLINVGSRRATGIPDRFSGSGSGTDFTLTISRLEPEDFAVYYCQQGIMLPPTFGQGTKVEIK Fc knob - FAP(4B9) VH: not shown | ~2 nM | 
4 | FAP-CD28 H2T (P1AE2021) (bispecific antibody, human IgG1, kappa, L234A L235A, head-to-tail 1+1 format; also called Molecule H; FAP(4B9)-CD28(SA) C-01) heavy chain CD28(SA) VLCH1 - FAP(4B9) VHCH1 EE - Fc knob PGLALA: not shown CD28(SA) VHCL: QVQLVQSGAEVKKPGASVKVSCKASGYTFTSYYIHWVRQAPGQGLEWIGCIYPGNVNTNYNEKFKDRATLTVDTSISTAYMELSRLRSDDTAVYFCTRSHYGLDWNFDVWGQGTTVTVSSASVAAPSVFIFPPSDEQLKSGTASVVCLLNNFYPREAKVQWKVDNALQSGNSQESVTEQDSKDSTYSLSSTLTLSKADYEKHKVYACEVTHQGLSSPVTKSFNRGEC FAP(4B9) VLCL RK: EIVLTQSPGTLSLSPGERATLSCRASQSVTSSYLAWYQQKPGQAPRLLINVGSRRATGIPDRFSGSGSGTDFTLTISRLEPEDFAVYYCQQGIMLPPTFGQGTKVEIKRTVAAPSVFIFPPSDRKLKSGTASVVCLLNNFYPREAKVQWKVDNALQSGNSQESVTEQDSKDSTYSLSSTLTLSKADYEKHKVYACEVTHQGLSSPVTKSFNRGEC Fc hole PGLALA: DKTHTCPPCPAPEAAGGPSVFLFPPKPKDTLMISRTPEVTCVVVDVSHEDPEVKFNWYVDGVEVHNAKTKPREEQYNSTYRVVSVLTVLHQDWLNGKEYKCKVSNKALGAPIEKTISKAKGQPREPQVCTLPPSRDELTKNQVSLSCAVKGFYPSDIAVEWESNGQPENNYKTTPPVLDSDGSFFLVSKLTVDKSRWQQGNVFSCSVMHEALHNHYTQKSLSLSP | ~1 nM | 
5 | FAP-CD28CA 1+2 (P1AD8962) (bispecific antibody, also called Molecule Q; FAP(4B9)-CD28(mAb9.3) 1+2) CD28(mAb 9.3) light chain: DIELTQSPASLAVSLGQRATISCRASESVEYYVTSLMQWYQQKPGQPPKLLIFAASNVESGVPARFSGSGSGTNFSLNIHPVDEDDVAMYFCQQSRKVPYTFGGGTKLEIKRTVAAPSVFIFPPSDEQLKSGTASVVCLLNNFYPREAKVQWKVDNALQSGNSQESVTEQDSKDSTYSLSSTLTLSKADYEKHKVYACEVTHQGLSSPVTKSFNRGEC heavy chain CD28(mAb 9.3) VHCH - Fc knob - FAP(4B9) VH: not shown heavy chain CD28(mAb 9.3) VHCH - Fc hole - FAP(4B9) VL: EVKLQQSGPGLVTPSQSLSITCTVSGFSLSDYGVHWVRQSPGQGLEWLGVIWAGGGTNYNSALMSRKSISKDNSKSQVFLKMNSLQADDTAVYYCARDKGYSYYYSMDYWGQGTSVTVSSASTKGPSVFPLAPSSKSTSGGTAALGCLVKDYFPEPVTVSWNSGALTSGVHTFPAVLQSSGLYSLSSVVTVPSSSLGTQTYICNVNHKPSNTKVDKKVEPKSCDKTHTCPPCPAPEAAGGPSVFLFPPKPKDTLMISRTPEVTCVVVDVSHEDPEVKFNWYVDGVEVHNAKTKPREEQYNSTYRVVSVLTVLHQDWLNGKEYKCKVSNKALGAPIEKTISKAKGQPREPQVCTLPPSRDELTKNQVSLSCAVKGFYPSDIAVEWESNGQPENNYKTTPPVLDSDGSFFLVSKLTVDKSRWQQGNVFSCSVMHEALHNHYTQKSLSLSPGGGGGSGGGGSGGGGSGGGGSEIVLTQSPGTLSLSPGERATLSCRASQSVTSSYLAWYQQKPGQAPRLLINVGSRRATGIPDRFSGSGSGTDFTLTISRLEPEDFAVYYCQQGIMLPPTFGQGTKVEIK |  | binding result [2]: binds
6 | FAP-CD28CA 2+2 (P1AD8968) (bispecific antibody, also called Molecule R; FAP(4B9)-CD28(mAb9.3) 2+2) heavy chain CD28(mAb 9.3) VHCH EE - Fc PGLALA - FAP(4B9) VHCL: not shown CD28(mAb 9.3) light chain VLCL RK: DIELTQSPASLAVSLGQRATISCRASESVEYYVTSLMQWYQQKPGQPPKLLIFAASNVESGVPARFSGSGSGTNFSLNIHPVDEDDVAMYFCQQSRKVPYTFGGGTKLEIKRTVAAPSVFIFPPSDRKLKSGTASVVCLLNNFYPREAKVQWKVDNALQSGNSQESVTEQDSKDSTYSLSSTLTLSKADYEKHKVYACEVTHQGLSSPVTKSFNRGEC FAP(4B9) VLCH1: EIVLTQSPGTLSLSPGERATLSCRASQSVTSSYLAWYQQKPGQAPRLLINVGSRRATGIPDRFSGSGSGTDFTLTISRLEPEDFAVYYCQQGIMLPPTFGQGTKVEIKSSASTKGPSVFPLAPSSKSTSGGTAALGCLVKDYFPEPVTVSWNSGALTSGVHTFPAVLQSSGLYSLSSVVTVPSSSLGTQTYICNVNHKPSNTKVDKKVEPKSC |  | EC50 (read off the curve) [2]: ~1 nM
